# From IntAct's records for PubMed 20493856
# B1: ADP-ribosylation factor 6 (Mus musculus), P62331 (parent)
# chain: MGKVLSKIFGNKEMRILMLGLDAAGKTTILYKLKLGQSVTTIPTVGFNVETVTYKNVKFNVWDVGGQDKIRPLWRHYYTGTQGLIFVVDCADRDRIDEARQELHRIINDREMRDAIILIFANKQDLPDAMKPHEIQEKLGLTRIRDRNWYVQPSCATSGDGLYEGLTWLTSNYKS
# partner: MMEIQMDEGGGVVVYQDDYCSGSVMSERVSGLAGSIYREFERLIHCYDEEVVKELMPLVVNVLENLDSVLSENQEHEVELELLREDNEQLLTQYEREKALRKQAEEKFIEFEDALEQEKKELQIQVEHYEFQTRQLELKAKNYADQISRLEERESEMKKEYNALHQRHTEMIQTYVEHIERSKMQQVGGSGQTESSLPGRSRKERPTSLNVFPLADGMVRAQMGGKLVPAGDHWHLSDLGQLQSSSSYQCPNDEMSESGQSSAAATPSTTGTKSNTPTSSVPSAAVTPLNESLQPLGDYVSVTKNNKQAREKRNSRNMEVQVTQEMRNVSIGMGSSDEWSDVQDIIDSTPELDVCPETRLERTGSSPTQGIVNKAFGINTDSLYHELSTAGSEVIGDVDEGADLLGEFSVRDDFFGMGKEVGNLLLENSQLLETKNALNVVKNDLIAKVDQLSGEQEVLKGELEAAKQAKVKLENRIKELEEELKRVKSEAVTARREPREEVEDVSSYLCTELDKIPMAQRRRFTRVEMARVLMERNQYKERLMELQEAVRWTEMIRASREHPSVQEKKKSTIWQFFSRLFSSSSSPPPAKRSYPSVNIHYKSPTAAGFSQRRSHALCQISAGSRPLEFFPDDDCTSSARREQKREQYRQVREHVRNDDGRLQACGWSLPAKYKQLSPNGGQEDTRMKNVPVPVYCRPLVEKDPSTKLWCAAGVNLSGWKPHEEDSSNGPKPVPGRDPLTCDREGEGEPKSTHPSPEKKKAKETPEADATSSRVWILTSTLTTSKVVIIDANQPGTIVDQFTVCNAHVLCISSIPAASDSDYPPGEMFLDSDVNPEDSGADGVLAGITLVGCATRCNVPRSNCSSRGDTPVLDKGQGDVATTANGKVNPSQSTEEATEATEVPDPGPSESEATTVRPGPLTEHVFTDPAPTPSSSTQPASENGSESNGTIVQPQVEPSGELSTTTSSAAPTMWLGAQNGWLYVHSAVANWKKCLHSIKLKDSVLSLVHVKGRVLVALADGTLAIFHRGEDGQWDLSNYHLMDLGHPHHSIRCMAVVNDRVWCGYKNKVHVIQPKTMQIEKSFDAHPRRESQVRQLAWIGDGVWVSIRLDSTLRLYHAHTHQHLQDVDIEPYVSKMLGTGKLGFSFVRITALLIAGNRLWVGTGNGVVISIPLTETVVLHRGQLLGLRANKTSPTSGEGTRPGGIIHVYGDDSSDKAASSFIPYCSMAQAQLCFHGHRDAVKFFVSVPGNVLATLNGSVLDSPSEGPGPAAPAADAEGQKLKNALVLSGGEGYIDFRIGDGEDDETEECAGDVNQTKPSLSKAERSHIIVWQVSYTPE
# B2: ADP-ribosylation factor 6 (Mus musculus), P62331 (parent)
# chain: B1 chain
# partner: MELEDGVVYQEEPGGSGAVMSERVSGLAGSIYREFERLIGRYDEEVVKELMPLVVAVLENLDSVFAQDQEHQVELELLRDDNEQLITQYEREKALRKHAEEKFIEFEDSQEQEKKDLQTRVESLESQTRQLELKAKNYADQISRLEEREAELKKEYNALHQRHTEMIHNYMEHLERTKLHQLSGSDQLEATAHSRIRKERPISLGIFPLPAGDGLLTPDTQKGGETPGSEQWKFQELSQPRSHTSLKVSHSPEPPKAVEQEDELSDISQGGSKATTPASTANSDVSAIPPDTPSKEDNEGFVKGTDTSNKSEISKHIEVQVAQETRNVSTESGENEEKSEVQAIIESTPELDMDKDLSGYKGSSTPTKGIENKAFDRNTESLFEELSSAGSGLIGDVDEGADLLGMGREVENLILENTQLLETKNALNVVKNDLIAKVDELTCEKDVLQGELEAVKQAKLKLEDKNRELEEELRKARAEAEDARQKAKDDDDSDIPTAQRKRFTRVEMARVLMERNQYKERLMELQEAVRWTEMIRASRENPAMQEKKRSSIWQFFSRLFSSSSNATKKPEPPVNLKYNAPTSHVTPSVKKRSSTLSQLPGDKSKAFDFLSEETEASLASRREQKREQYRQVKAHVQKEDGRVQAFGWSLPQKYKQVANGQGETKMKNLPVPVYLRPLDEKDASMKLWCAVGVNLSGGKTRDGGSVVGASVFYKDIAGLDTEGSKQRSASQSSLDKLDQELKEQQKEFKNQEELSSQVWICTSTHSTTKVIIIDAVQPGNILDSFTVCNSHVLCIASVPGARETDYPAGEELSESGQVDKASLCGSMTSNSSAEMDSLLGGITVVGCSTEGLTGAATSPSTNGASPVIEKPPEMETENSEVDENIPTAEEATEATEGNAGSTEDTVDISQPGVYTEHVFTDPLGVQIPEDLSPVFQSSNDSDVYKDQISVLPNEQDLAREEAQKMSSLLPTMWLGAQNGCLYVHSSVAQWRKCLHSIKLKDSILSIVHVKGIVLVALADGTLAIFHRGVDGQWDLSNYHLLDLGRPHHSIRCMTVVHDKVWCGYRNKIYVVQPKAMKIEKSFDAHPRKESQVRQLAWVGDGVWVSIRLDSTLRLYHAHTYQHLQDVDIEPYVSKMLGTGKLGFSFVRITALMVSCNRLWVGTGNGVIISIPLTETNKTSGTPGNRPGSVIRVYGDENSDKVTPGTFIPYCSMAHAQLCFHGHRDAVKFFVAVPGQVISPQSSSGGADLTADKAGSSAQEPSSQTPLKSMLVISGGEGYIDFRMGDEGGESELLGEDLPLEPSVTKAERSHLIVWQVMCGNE
# Variants of: B1
# Conditions: with jip3_mouse Mapk8ip3, Q9ESN9
row,effect of a mutation on the interaction,Variant
1,disrupting interaction,T53E
2,disrupting interaction,N60T
3,disrupting interaction,K58C

# Variants of: B1
# Conditions: with jip3_mouse Mapk8ip3, Q9ESN9
# Remark: another data set of the same source
row,effect of a mutation on the interaction,Variant
1,decreasing interaction,T53E

# Variants of: B1
# Conditions: with jip3_mouse Mapk8ip3, Q9ESN9
# Remark: another data set of the same source
row,effect of a mutation on the interaction,Variant
1,decreasing interaction,T27N

# Variants of: B1
# Conditions: with jip3_mouse Mapk8ip3, Q9ESN9
# Remark: another data set of the same source
row,effect of a mutation on the interaction,Variant
1,disrupting interaction,T27N

# Variants of: B1
# Conditions: with jip3_mouse Mapk8ip3, Q9ESN9
# Remark: another data set of the same source
row,effect of a mutation on the interaction,Variant
1,decreasing interaction,L19V

# Variants of: B1
# Conditions: with jip3_mouse Mapk8ip3, Q9ESN9
# Remark: another data set of the same source
row,effect of a mutation on the interaction,Variant
1,decreasing interaction,K58C

# Variants of: B2
# Conditions: with jip4_mouse Spag9, Q58A65
row,effect of a mutation on the interaction,Variant
1,disrupting interaction,N60T
2,disrupting interaction,K58C
3,disrupting interaction,T53E

# Variants of: B2
# Conditions: with jip4_mouse Spag9, Q58A65
# Remark: another data set of the same source
row,effect of a mutation on the interaction,Variant
1,decreasing interaction,N60T

# Variants of: B2
# Conditions: with jip4_mouse Spag9, Q58A65
# Remark: another data set of the same source
row,effect of a mutation on the interaction,Variant
1,decreasing interaction,K58C

# Variants of: B2
# Conditions: with jip4_mouse Spag9, Q58A65
# Remark: another data set of the same source
row,effect of a mutation on the interaction,Variant
1,decreasing interaction,T53E

# Variants of: B2
# Conditions: with jip4_mouse Spag9, Q58A65
# Remark: another data set of the same source
row,effect of a mutation on the interaction,Variant
1,decreasing interaction,L19V

# Variants of: B2
# Conditions: with jip4_mouse Spag9, Q58A65
# Remark: another data set of the same source
row,effect of a mutation on the interaction,Variant
1,disrupting interaction,T27N

# Variants of: B2
# Conditions: with jip4_mouse Spag9, Q58A65
# Remark: another data set of the same source
row,effect of a mutation on the interaction,Variant
1,decreasing interaction,T27N
